Source: patent US20140255408A1 (Janssen / Centocor, published 2014)
Positions count from the first letter of the chain named. Names and notes keep the numbering of the source. Like-named read-outs stand apart in the source and are kept apart here.

B1: control monovalent anti-cMet mAb M1-K409R-gp120-F405L (bispecific antibody, human IgG1, kappa)
heavy 1: not shown
light 1: DIQMTQSPSSVSASVGDRVTITCRASQGISNWLAWFQHKPGKAPKLLIYAASSLLSGVPSRFSGSGSGTDFTLTISSLQPEDFATYYCQQANSFPITFGQGTRLEIKRTVAAPSVFIFPPSDEQLKSGTASVVCLLNNFYPREAKVQWKVDNALQSGNSQESVTEQDSKDSTYSLSSTLTLSKADYEKHKVYACEVTHQGLSSPVTKSFNRGEC
heavy 2: not shown
light 2: EIVLTQSPGTLSLSPGERATFSCRSSHSIRSRRVAWYQHKPGQAPRLVIHGVSNRASGISDRFSGSGSGTDFTLTITRVEPEDFALYYCQVYGASSYTFGQGTKLERKRTVAAPSVFIFPPSDEQLKSGTASVVCLLNNFYPREAKVQWKVDNALQSGNSQESVTEQDSKDSTYSLSSTLTLSKADYEKHKVYACEVTHQGLSSPVTKSFNRGEC
notes: also called M1-K409R-120-F405L
B2: control monovalent anti-EGFR mAb E1-F405L-gp120-K409R (bispecific antibody, human IgG1, kappa)
heavy 1: not shown
light 1: not shown
heavy 2: not shown
light 2: B1 light 2
notes: also called E1-F405L-120-K409R
B3: P54CR4-31 (designed binder, not shown: small tags and cut ends)
chain: LPAPKNLVVSEVTEDSLRLSWTAPDAAFDSFLIQYQESEKVGEAINLTVPGSERSYDLTGLKPGTEYTVSIYGVLGSYVFEHDVMLPLSAEFTT
B4: P53A1R5-17 (designed binder, not shown: small tags and cut ends)
chain: LPAPKNLVVSEVTEDSLRLSWADPHGFYDSFLIQYQESEKVGEAINLTVPGSERSYDLTGLKPGTEYTVSIYGVHNVYKDTNMRGLPLSAEFTT
B5: P54AR4-74 (designed binder, not shown: small tags and cut ends)
chain: B4 chain with A22G, D23Y, P24N, H25G, G26D, F27H, Y28F
B6: P54AR4-17 (designed binder, not shown: small tags and cut ends)
chain: B4 chain with A22T, D23Y, P24D, H25R, G26D, F27G
B7: P54AR4-48 (designed binder, not shown: small tags and cut ends)
chain: B4 chain with A22D, H25R, D29E
B8: P54AR4-73 (designed binder, not shown: small tags and cut ends)
chain: B4 chain with A22T, D23W, H25Y, G26A, F27D, Y28L
B9: P53A1R5-17v2 (designed binder, not shown: small tags and cut ends)
chain: B4 chain with L17A, N46V, E91I
B10: P54AR4-83 (designed binder, not shown: small tags and cut ends)
chain: B4 chain with A22D, H25W, G26A, D29E
B11: P114AR5P74-A5 (designed binder, not shown: small tags and cut ends)
chain: LPAPKNLVVSRVTEDSARLSWTAPDAAFDSFWIRYDEVVVGGEAIVLTVPGSERSYDLTGLKPGTEYYVNILGVKGGSISVPLSAIFTT
B12: P54AR4-81 (designed binder, not shown: small tags and cut ends)
chain: LPAPKNLVVSEVTEDSLRLSWDYDLGVYFDSFLIQYQESEKVGEAINLTVPGSERSYDLTGLKPGTEYTVSIYGVHNVYKDTNMRGLPLSAEFTT
B13: parental bivalent anti-c-Met antibody M1-K409R (antibody, human IgG1, kappa, V domains shown)
VH: QVQLVQSGAEVKKPGASVKVSCETSGYTFTSYGISWVRQAPGHGLEWMGWISAYNGYTNYAQKLQGRVTMTTDTSTSTAYMELRSLRSDDTAVYYCARDLRGTNYFDYWGQGTLVTVSS
VL: DIQMTQSPSSVSASVGDRVTITCRASQGISNWLAWFQHKPGKAPKLLIYAASSLLSGVPSRFSGSGSGTDFTLTISSLQPEDFATYYCQQANSFPITFGQGTRLEIKR
notes: also called parental bivalent antibody; Parental mAbs
B14: ECB109 (designed binder)
chain: MLPAPKNLVVSEVTEDSARLSWDDPHAFYESFLIQYQESEKVGEAIVLTVPGSERSYDLTGLKPGTEYTVSIYGVHNVYKDTNIRGLPLSAIFTTAPAPAPAPAPLPAPKNLVVSRVTEDSARLSWTAPDAAFDSFWIRYFEFLGSGEAIVLTVPGSERSYDLTGLKPGTEYVVNILSVKGGSISPPLSAIFTT
notes: not shown: C-terminal poly-histidine tag

Assays:
[1] = biological target: T1, human c-Met on cells (human, UniProt P08581 25-1390); experiment: H441 cell binding assay (assay for c-Met binding)
T1 construct: c-Met on NCI-H441, NCI-H292, NCI-H1975 and U87-MG cells; in U-2 OS cells a beta-galactosidase fragment was fused to its C-terminus; also called hepatocyte growth factor receptor
Protocol: (§1) Purified FN3 domains (50 μL/well; 0 to 1000 nM) were added to the cells for 1 hour at 4° C. in duplicate plates. […] Cells were incubated with biotinylated-anti HIS antibody (diluted 1:160 in FACS stain buffer, 50 μL/well, R&D Systems, cat #BAM050) for 30 minutes at 4° C. […] Cells were washed three times with FACS stain buffer (150 μL/well) and left in FACS stain buffer (50 μL/well).

[2] = biological target: T1, human c-Met on cells; experiment: cell-based or functional assay
[3] = biological target: T2, human EGFR on cells (human, UniProt P00533 25-1210); experiment: A431 cell binding assay (assay for EGFR binding)
T2 construct: Wild type EGFR on A431, NCI-H292, NCI-H322, NCI-H441 and SNU-5 cells; in U-2 OS cells a beta-galactosidase fragment was fused to its C-terminus; also called epidermal growth factor receptor; HER1

[4] = biological target: T3, recombinant human extracellular domain of EGFR fused to an IgG1 Fc (human, UniProt P00533 25-645); experiment: SPR (ProteOn), EGFR-Fc captured on anti-human Fc IgG, FN3 domain as analyte
T3 construct: Bought from R&D Systems; The residues are stated for the panning reagent; also called EGFR-Fc; EGF R-Fc; not shown: IgG1 Fc
Protocol: Select EGFR-binding FN3 domains were screened to identify those with slow off-rates (koff) in binding to EGFR-Fc on a ProteOn XPR-36 instrument (Bio-Rad) to facilitate selection of high affinity binders. Goat anti-human Fc IgG (R&D systems), at a concentration of 5 μg/mL, was directly immobilized via amine coupling (at pH 5.0) on all 6 ligand channels in horizontal orientation on the chip with a flow rate of 30 μL/min in PBS containing 0.005% Tween-20. The immobilization densities averaged about 1500 Response Units (RU) with less than 5% variation among different channels. EGFR-Fc was captured on the anti-human Fc IgG surface to a density around 600 RU in vertical ligand orientation. All tested FN3 domains were normalized to a concentration of […] and tested for their binding in horizontal orientation. All 6 analyte channels were used for the FN3 domains to maximize screening throughput. The dissociation phase was monitored for 10 minutes at a flow rate of 100 μL/min. The inter-spot binding signals were used as references to monitor non-specific binding between analytes and the immobilized IgG surface, and were subtracted from all binding responses. The processed binding data were locally fit to a 1:1 simple Langmuir binding model to extract the koff for each FN3 domain binding to captured EGFR-Fc.
Binding affinity of selected EGFR-binding FN3 domains to recombinant EGFR extracellular domain was further characterized by surface Plasmon resonance methods using a Proteon Instrument (BioRad). The assay set-up (chip preparation, EGFR-Fc capture) was similar to that described above for off-rate analysis. Selected EGFR binding FN3 domains were tested at 1 μM concentration in 3-fold dilution series in the horizontal orientation. A buffer sample was also injected to monitor the baseline stability.

[5] = biological target: T2, human EGFR on cells; experiment: cell-based or functional assay
[6] = biological target: T2, human EGFR on cells; experiment: A431 cell EGF competition assay, competitor biotinylated EGF; A431 cell EGF competition assay: displaces EGF from EGFR on A431 cells
[7] = biological target: T2, human EGFR on cells; experiment: A431 cell binding assay, anti-penta-His-Alexa488 detection
[8] = biological target: T2, human EGFR on cells; experiment: A431 cell EGF competition assay, competitor biotinylated EGF
[9] = biological target: T3, recombinant human extracellular domain …; experiment: affinity printed beside the clone name; SPR on EGFR-Fc taken as the method
[10] = biological target: T1, human c-Met on cells; experiment: cell-based or functional assay; remark: listed apart in the source
[11] = biological target: T4, Recombinant human c-Met Fc chimera (human, UniProt P08581 16-932); experiment: SPR (ProteOn), c-Met-Fc captured on anti-human Fc IgG, FN3 domain as analyte
T4 construct: not shown: Fc part

[12] = biological target: T1, human c-Met on cells; experiment: H441 cell binding assay, anti-His detection
Protocol: as §1

[13] = biological target: T4, Recombinant human c-Met Fc chimera; experiment: HGF competition assay on coated c-Met-Fc, competitor biotinylated HGF
[14] = biological target: human c-Met extracellular domain (human, UniProt P08581 16-932); experiment: MSD plate competition assay, competitor biotinylated HGF at 10 nM
Protocol: MSD Blocker A buffer (Meso Scale Discovery, Gaithersburg, Md.) was added to each well and incubated for 2 hr at room temperature. […] After 2-hour incubation with gentle shaking at room temperature, the plates were washed 3 times with 0.1M HEPES buffer (pH 7.4). MSD Read Buffer T was diluted and dispensed and the signals were analyzed with a SECTOR Imager 6000.

[15] = biological target: T2, human EGFR on cells; experiment: cell-based or functional assay; remark: listed apart in the source
[16] = biological target: T1, human c-Met on cells; experiment: cell-based or functional assay; remark: listed apart in the source
[17] = biological target: T4, Recombinant human c-Met Fc chimera; experiment: SPR (ProteOn), protocol of Example 3, recombinant c-Met extracellular domain
[18] = biological target: T3, recombinant human extracellular domain …; experiment: SPR (ProteOn), protocol of Example 3, recombinant EGFR extracellular domain
Protocol: All 6 analyte channels were used for the FN3 domains to maximize screening throughput. The dissociation phase was monitored for 10 minutes at a flow rate of 100 μL/min. The inter-spot binding signals were used as references to monitor non-specific binding between analytes and the immobilized IgG surface, and were subtracted from all binding responses. The processed binding data were locally fit to a 1:1 simple Langmuir binding model to extract the koff for each FN3 domain binding to captured EGFR-Fc.
Binding affinity of selected EGFR-binding FN3 domains to recombinant EGFR extracellular domain was further characterized by surface Plasmon resonance methods using a Proteon Instrument (BioRad). The assay set-up (chip preparation, EGFR-Fc capture) was similar to that described above for off-rate analysis. Selected EGFR binding FN3 domains were tested at 1 μM concentration in 3-fold dilution series in the horizontal orientation. A buffer sample was also injected to monitor the baseline stability. […] Two sets of reference data were subtracted from the response data: 1) the inter-spot signals to correct for the non-specific interactions between the EGFR-binding FN3 domain and the immobilized IgG surface; 2) the buffer channel signals to correct for baseline drifting due to the dissociation of captured EGFR-Fc surface over time. The processed binding data at all concentrations for each FN3 domain were globally fit to a 1:1 simple Langmuir binding model to extract estimates of the kinetic (kₘ, koff) and affinity (KD) constants.

Row | Binder | Kd [4] [nM] | Phospho-EGFR IC50 (A431 cells) [5] [nM] | EC50 [7] [nM] | IC50 [8] [nM] | other results
1 | B1 |  |  |  |  | EC50 [1]: 1 nM; inhibition of ligand-induced c-Met phosphorylation in H292 cells (IC50) [2]: 4.05 nM
2 | B2 |  |  |  |  | EC50 [3]: 10.1 nM
3 | B3 | 0.383 | 179 |  |  | NCI-H292 Growth IC50 [5]: 1150 nM; NCI-H322 Growth IC50 [5]: > 3070 nM; IC50 [6]: 55 nM
4 | B4 | 1.89 | > 2500 | 4 | 9.8 | NCI-H292 Growth IC50 [5]: 86 nM; NCI-H322 Growth IC50 [5]: 65 nM
5 | B5 |  |  | 77 |  | 
6 | B6 | 9.62 | 184 | 16 | 21 | 
7 | B7 | 7.78 | 170 | 12 | 9.8 | 
8 | B8 | 0.197 | 141 | 9.4 | 4.6 | NCI-H292 Growth IC50 [5]: 83 nM; NCI-H322 Growth IC50 [5]: 73 nM
9 | B9 |  |  |  |  | Kd [9]: 1.9 nM
10 | B10 | 0.255 | 18 | 2.2 | 1.8 | NCI-H292 Growth IC50 [5]: 5.9 nM; NCI-H322 Growth IC50 [5]: 9.2 nM
11 | B11 |  |  |  |  | Inhibition of Proliferation of U87-MG cells (IC50) [10]: 464 nM; pMet inhibition in H441 cells (IC50) [10]: 1.08 µM; Kd [11]: 10.1 nM; inhibition of c-Met phosphorylation in HGF-stimulated NCI-H292 cells (IC50) [2]: 610 nM; EC50 [12]: 18.7 nM; IC50 [13]: 5.2 nM
12 | B12 |  |  | 84 | 121 | 
13 | B13 |  |  |  |  | EC50 [1]: 0.65 nM; IC50 [14]: 14.8 nM
14 | B14 |  |  |  |  | H292 pEGFR inhibition in H292 cells (IC50) [15]: 432 nM; pMet inhibition in H441 cells (IC50) [16]: 26 nM; Kd [17]: 2.1 nM; Kd [18]: 17.3 nM
